In the assay the target is extracellular signal-regulated kinase (ERK1/2), endogenous in mouse spinal dorsal horn (mouse (endogenous in spinal dorsal horn)) (UniProt P63085).

B1: glycine receptor α1^ins subunit, endogenous in mouse spinal dorsal horn (receptor)
chain: ARSAPKPMSPSDFLDKLMGRTSGYDARIRPNFKGPPVNVSCNIFINSFGSIAETTMDYRVNIFLRQQWNDPRLAYNEYPDDSLDLDPSMLDSIWKPDLFFANEKGAHFHEITTDNKLLRISRNGNVLYSIRITLTLACPMDLKNFPMDVQTCIMQLESFGYTMNDLIFEWQEQGAVQVADGLTLPQFILKEEKDLRYCTKHYNTGKFTCIEARFHLERQMGYYLIQMYIPSLLIVILSWISFWINMDAAPARVGLGITTVLTMTTQSSGSRASLPKVSYVKAIDIWMAVCLLFVFSALLEYAAVNFVSRQHKELLRFRRKRRHHKSPMLNLFQDDEGGEGRFNFSAYGMGPACLQAKDGISVKGANNNNTTNPPPAPSKSPEEMRKLFIQRAKKIDKISRIGFPMAFLIFNMFYWIIYKIVRREDVHNK
B1 returned a GlyR-IPSCs in spinal slices from formalin-injected mice, with bath application of TAT-pep-α1^ins (% of baseline) of 145.
